Values of other authors in PMC5837126.

Biological target: IL-2Rβγc (intermediate-affinity IL-2R) (Homo sapiens) (UniProt P14784)
UniProt P14784, sequence (P14784 27-240, chain 1 of 2): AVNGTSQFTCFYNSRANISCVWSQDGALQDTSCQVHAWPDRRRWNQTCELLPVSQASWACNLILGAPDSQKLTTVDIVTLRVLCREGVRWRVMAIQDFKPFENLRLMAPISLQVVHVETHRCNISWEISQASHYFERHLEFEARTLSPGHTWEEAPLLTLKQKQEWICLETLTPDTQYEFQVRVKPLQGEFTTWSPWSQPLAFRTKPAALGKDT
UniProt P14784, sequence (P31785 23-262, chain 2 of 2, further chain): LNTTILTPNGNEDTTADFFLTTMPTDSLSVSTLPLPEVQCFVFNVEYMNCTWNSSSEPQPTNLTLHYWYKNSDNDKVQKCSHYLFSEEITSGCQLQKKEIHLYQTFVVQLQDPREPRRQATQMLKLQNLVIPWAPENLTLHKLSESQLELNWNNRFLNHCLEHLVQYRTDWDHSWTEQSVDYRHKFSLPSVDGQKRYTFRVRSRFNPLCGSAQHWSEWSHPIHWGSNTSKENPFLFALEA

Kd: 1 nM
Substance: IL-2 (from UniProt P60568)
